# According to article PMC11736000, “Structural and functional analysis of a bile salt hydrolase from the bison microbiome” (The Journal of Biological Chemistry, 2024):
# Columns and labels:
# Assay in all cases: steady-state kinetics (KM), o-phthaladehyde assay; HPLC/MS
# Format in all cases: biochemical, Arthrobacter citreus
# [1] = substrate: C[C@H](CCC(=O)NCCS(=O)(=O)O)[C@H]1CC[C@H]2[C@@H]3CC[C@@H]4C[C@H](O)CC[C@]4(C)[C@H]3C[C@H](O)[C@]12C
# [2] = substrate: C[C@H](CCC(=O)NCC(=O)O)[C@H]1CC[C@H]2[C@@H]3[C@H](O)C[C@@H]4C[C@H](O)CC[C@]4(C)[C@H]3C[C@H](O)[C@]12C
# [3] = substrate: C[C@H](CCC(=O)NCC(=O)O)[C@H]1CC[C@H]2[C@@H]3CC[C@@H]4C[C@H](O)CC[C@]4(C)[C@H]3C[C@H](O)[C@]12C
protein,measurement,setting,value
"bile salt hydrolase from Arthrobacter citreus EINP1 (BSHAc) (Arthrobacter citreus) (protein, C-terminally hexahistidine-tagged recombinant BSHAc; NCBI WP_342023006.1) CTGIRYSDGSGNLYLARNLDWTSDFGERVVVTPTGYTTKSPFGAVPAIRHAVIGMGIVQEDTPLYFDCGNDAGLAVAGLNFPGYAQYATEAVDGATNVAAFEFPLWVASQFASVDEVEAALADVVIVDRPINDKYPSSLLHWIIGDSKRAIVVEYTSDGLHVFDDDVDVLANQPGFGWHHENLRNYLNASPDFPEKIVLNRADLVPFGSGSLMRGIPGDYYSPSRFVRAAYVHAHYPGKSTEEENVSRAFHTLQQVAMVDGSAAMGSGEFEKTTYTGLFSSRTMTYYWNTYEDPAVRSVAMADHAADGTELVVV",Km,[1],740 µM
same,kcat,[1],342 ± 6 s⁻¹
same,kcat/Km,[1],460000 ± 50000 M⁻¹ s⁻¹
same,Km,[2],1700 µM
same,kcat,[2],1500 ± 50 s⁻¹
same,kcat/Km,[2],880000 ± 10000 M⁻¹ s⁻¹
same,Km,[3],380 µM
same,kcat,[3],1630 ± 40 s⁻¹
same,kcat/Km,[3],4.3e+06 ± 400000 M⁻¹ s⁻¹
